# Measurements: IntAct's records for PubMed 35512704
# B1: Speckle-type POZ protein (Homo sapiens), O43791 (parent)
# chain: MSRVPSPPPPAEMSSGPVAESWCYTQIKVVKFSYMWTINNFSFCREEMGEVIKSSTFSSGANDKLKWCLRVNPKGLDEESKDYLSLYLLLVSCPKSEVRAKFKFSILNAKGEETKAMESQRAYRFVQGKDWGFKKFIRRDFLLDEANGLLPDDKLTLFCEVSVVQDSVNISGQNTMNMVKVPECRLADELGGLWENSRFTDCCLCVAGQEFQAHKAILAARSPVFSAMFEHEMEESKKNRVEINDVEPEVFKEMMCFIYTGKAPNLDKMADDLLAAADKYALERLKVMCEDALCSNLSVENAAEILILADLHSADQLKTQAVDFINYHASDVLETSGWKSMVVSHPHLVAEAYRSLASAQCPFLGPPRKRLKQS
# Variants of: B1
# Conditions: with cdk6_human CDK6, Q00534
# Sequence of cdk6_human CDK6, Q00534 (Q00534 whole entry): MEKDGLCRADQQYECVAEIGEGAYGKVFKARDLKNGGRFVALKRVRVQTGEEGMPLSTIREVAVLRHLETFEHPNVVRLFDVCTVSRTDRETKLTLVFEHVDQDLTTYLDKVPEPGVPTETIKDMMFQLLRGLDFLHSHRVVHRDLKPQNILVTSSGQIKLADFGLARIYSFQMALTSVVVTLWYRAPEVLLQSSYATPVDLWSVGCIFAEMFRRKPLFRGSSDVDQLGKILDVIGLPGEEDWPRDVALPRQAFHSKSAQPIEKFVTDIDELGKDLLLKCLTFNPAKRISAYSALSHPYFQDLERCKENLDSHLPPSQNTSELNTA
row,Variant,effect of a mutation on the interaction
1,MSRVPSPPPPAEMSSGPVAESWCYTQIKVVKFSYMWTINNFSFCREEMGEVIKSSTFSSGANDKLKWCLRVNPKGLDEESKDYLSLYLLLVSCPKSEVRAKFKFSILNAKGEETKAMESQRAYRFVQGKDWGVKKFIRRDFLLDEANGLLPDDKLTLFCEVSVVQDSVNISGQNTMNMVKVPECRLADELGGLWENSRFTDCCLCVAGQEFQAHKAILAARSPVFSAMFEHEMEESKKNRVEINDVEPEVFKEMMCFIYTGKAPNLDKMADDLLAAADKYALERLKVMCEDALCSNLSVENAAEILILADLHSADQLKTQAVDFINYHASDVLETSGWKSMVVSHPHLVAEAYRSLASAQCPFLGPPRKRLKQS [F133V],with no effect

# Variants of: B1
# Conditions: with cdn2c_human CDKN2C
row,Variant,effect of a mutation on the interaction
1,MSRVPSPPPPAEMSSGPVAESWCYTQIKVVKFSYMWTINNFSFCREEMGEVIKSSTFSSGANDKLKWCLRVNPKGLDEESKDYLSLYLLLVSCPKSEVRAKFKFSILNAKGEETKAMESQRAYRFVQGKDWGVKKFIRRDFLLDEANGLLPDDKLTLFCEVSVVQDSVNISGQNTMNMVKVPECRLADELGGLWENSRFTDCCLCVAGQEFQAHKAILAARSPVFSAMFEHEMEESKKNRVEINDVEPEVFKEMMCFIYTGKAPNLDKMADDLLAAADKYALERLKVMCEDALCSNLSVENAAEILILADLHSADQLKTQAVDFINYHASDVLETSGWKSMVVSHPHLVAEAYRSLASAQCPFLGPPRKRLKQS [F133V],with no effect

# Variants of: B1
# Conditions: with chd1l_human CHD1L
row,Variant,effect of a mutation on the interaction
1,MSRVPSPPPPAEMSSGPVAESWCYTQIKVVKFSYMWTINNFSFCREEMGEVIKSSTFSSGANDKLKWCLRVNPKGLDEESKDYLSLYLLLVSCPKSEVRAKFKFSILNAKGEETKAMESQRAYRFVQGKDWGVKKFIRRDFLLDEANGLLPDDKLTLFCEVSVVQDSVNISGQNTMNMVKVPECRLADELGGLWENSRFTDCCLCVAGQEFQAHKAILAARSPVFSAMFEHEMEESKKNRVEINDVEPEVFKEMMCFIYTGKAPNLDKMADDLLAAADKYALERLKVMCEDALCSNLSVENAAEILILADLHSADQLKTQAVDFINYHASDVLETSGWKSMVVSHPHLVAEAYRSLASAQCPFLGPPRKRLKQS [F133V],with no effect

# Variants of: B1
# Conditions: with chd2_human CHD2, O14647
# Sequence of chd2_human CHD2, O14647 (O14647 whole entry): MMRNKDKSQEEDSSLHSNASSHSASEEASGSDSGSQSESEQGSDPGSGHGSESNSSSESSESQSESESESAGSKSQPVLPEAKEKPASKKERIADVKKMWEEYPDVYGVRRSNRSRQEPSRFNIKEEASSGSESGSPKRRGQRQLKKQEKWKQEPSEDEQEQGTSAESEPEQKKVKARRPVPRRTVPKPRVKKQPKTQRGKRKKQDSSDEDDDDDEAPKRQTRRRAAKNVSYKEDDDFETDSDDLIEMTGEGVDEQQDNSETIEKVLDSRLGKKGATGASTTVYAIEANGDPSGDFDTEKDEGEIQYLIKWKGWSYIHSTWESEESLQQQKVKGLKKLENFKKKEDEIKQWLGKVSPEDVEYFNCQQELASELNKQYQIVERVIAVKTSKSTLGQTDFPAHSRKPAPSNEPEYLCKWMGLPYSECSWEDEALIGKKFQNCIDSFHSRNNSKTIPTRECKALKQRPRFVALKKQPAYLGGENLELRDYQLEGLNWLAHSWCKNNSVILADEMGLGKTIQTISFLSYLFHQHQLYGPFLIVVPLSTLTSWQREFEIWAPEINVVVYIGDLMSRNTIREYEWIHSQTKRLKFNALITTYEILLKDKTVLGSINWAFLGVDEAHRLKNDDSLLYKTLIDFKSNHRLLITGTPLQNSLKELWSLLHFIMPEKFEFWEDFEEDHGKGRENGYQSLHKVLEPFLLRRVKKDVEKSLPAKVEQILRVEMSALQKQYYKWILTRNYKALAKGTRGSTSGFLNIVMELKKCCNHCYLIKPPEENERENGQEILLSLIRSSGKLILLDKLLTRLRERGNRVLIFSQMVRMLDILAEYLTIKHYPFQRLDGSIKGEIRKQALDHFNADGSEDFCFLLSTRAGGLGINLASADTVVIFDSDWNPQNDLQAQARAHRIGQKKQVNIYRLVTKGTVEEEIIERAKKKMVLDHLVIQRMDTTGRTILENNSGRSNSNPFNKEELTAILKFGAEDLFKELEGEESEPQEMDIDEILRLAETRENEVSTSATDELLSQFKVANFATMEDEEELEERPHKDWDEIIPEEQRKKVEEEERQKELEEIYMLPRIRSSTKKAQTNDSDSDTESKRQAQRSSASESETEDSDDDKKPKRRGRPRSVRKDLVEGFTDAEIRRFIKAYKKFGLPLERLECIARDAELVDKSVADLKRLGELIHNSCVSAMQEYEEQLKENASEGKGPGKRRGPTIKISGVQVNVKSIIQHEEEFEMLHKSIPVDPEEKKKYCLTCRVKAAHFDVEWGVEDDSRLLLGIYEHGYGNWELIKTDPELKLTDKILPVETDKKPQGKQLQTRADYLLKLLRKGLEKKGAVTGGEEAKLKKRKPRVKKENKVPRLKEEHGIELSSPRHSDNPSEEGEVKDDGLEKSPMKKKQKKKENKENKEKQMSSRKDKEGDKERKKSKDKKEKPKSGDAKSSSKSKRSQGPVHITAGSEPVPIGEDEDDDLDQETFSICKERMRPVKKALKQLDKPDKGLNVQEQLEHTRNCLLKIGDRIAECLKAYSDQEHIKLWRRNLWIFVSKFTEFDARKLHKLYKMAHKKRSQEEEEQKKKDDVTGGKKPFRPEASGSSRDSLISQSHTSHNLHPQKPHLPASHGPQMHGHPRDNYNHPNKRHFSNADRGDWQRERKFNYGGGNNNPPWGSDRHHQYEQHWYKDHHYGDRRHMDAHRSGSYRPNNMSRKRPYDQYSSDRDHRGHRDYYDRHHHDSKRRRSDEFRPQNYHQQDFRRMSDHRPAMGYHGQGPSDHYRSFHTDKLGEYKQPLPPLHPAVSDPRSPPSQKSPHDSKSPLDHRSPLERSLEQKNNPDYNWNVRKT
row,Variant,effect of a mutation on the interaction
1,MSRVPSPPPPAEMSSGPVAESWCYTQIKVVKFSYMWTINNFSFCREEMGEVIKSSTFSSGANDKLKWCLRVNPKGLDEESKDYLSLYLLLVSCPKSEVRAKFKFSILNAKGEETKAMESQRAYRFVQGKDWGVKKFIRRDFLLDEANGLLPDDKLTLFCEVSVVQDSVNISGQNTMNMVKVPECRLADELGGLWENSRFTDCCLCVAGQEFQAHKAILAARSPVFSAMFEHEMEESKKNRVEINDVEPEVFKEMMCFIYTGKAPNLDKMADDLLAAADKYALERLKVMCEDALCSNLSVENAAEILILADLHSADQLKTQAVDFINYHASDVLETSGWKSMVVSHPHLVAEAYRSLASAQCPFLGPPRKRLKQS [F133V],with no effect

# Variants of: B1
# Conditions: with ch3l1_human CHI3L1, P36222
# Sequence of ch3l1_human CHI3L1, P36222 (P36222 whole entry): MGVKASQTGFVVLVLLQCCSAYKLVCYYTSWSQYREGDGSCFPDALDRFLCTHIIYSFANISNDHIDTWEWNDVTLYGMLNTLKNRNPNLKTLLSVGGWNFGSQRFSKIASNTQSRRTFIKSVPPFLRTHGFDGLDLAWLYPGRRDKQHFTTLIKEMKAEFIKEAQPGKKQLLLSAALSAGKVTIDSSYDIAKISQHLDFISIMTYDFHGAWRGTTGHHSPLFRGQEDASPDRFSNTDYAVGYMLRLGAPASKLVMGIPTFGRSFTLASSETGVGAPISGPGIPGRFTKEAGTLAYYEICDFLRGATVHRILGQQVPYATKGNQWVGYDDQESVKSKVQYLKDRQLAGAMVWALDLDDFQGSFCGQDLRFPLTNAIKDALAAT
row,Variant,effect of a mutation on the interaction
1,MSRVPSPPPPAEMSSGPVAESWCYTQIKVVKFSYMWTINNFSFCREEMGEVIKSSTFSSGANDKLKWCLRVNPKGLDEESKDYLSLYLLLVSCPKSEVRAKFKFSILNAKGEETKAMESQRAYRFVQGKDWGVKKFIRRDFLLDEANGLLPDDKLTLFCEVSVVQDSVNISGQNTMNMVKVPECRLADELGGLWENSRFTDCCLCVAGQEFQAHKAILAARSPVFSAMFEHEMEESKKNRVEINDVEPEVFKEMMCFIYTGKAPNLDKMADDLLAAADKYALERLKVMCEDALCSNLSVENAAEILILADLHSADQLKTQAVDFINYHASDVLETSGWKSMVVSHPHLVAEAYRSLASAQCPFLGPPRKRLKQS [F133V],with no effect

# Variants of: B1
# Conditions: with cul3_human CUL3, Q13618
# Sequence of cul3_human CUL3, Q13618 (Q13618 whole entry): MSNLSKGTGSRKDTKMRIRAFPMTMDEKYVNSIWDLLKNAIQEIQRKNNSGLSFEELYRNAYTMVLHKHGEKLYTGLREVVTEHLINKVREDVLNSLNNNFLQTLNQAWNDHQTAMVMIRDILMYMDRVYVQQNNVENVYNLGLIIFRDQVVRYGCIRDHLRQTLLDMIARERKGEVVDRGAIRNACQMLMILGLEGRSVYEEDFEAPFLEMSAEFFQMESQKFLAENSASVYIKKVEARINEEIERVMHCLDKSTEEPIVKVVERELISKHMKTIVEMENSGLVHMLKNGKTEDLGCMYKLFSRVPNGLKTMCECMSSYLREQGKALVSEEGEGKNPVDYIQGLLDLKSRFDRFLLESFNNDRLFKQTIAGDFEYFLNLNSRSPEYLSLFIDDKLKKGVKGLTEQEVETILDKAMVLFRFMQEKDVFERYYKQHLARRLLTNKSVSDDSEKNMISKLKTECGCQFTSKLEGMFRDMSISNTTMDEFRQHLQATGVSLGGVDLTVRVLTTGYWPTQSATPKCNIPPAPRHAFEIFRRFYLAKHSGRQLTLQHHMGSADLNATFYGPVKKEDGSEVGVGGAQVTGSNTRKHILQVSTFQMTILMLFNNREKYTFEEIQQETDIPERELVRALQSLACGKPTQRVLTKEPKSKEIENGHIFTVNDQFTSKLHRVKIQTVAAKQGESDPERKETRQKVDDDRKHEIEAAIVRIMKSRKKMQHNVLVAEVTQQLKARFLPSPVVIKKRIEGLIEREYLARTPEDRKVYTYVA
row,Variant,effect of a mutation on the interaction
1,MSRVPSPPPPAEMSSGPVAESWCYTQIKVVKFSYMWTINNFSFCREEMGEVIKSSTFSSGANDKLKWCLRVNPKGLDEESKDYLSLYLLLVSCPKSEVRAKFKFSILNAKGEETKAMESQRAYRFVQGKDWGVKKFIRRDFLLDEANGLLPDDKLTLFCEVSVVQDSVNISGQNTMNMVKVPECRLADELGGLWENSRFTDCCLCVAGQEFQAHKAILAARSPVFSAMFEHEMEESKKNRVEINDVEPEVFKEMMCFIYTGKAPNLDKMADDLLAAADKYALERLKVMCEDALCSNLSVENAAEILILADLHSADQLKTQAVDFINYHASDVLETSGWKSMVVSHPHLVAEAYRSLASAQCPFLGPPRKRLKQS [F133V],with no effect

# Variants of: B1
# Conditions: with cul4b_human CUL4B
row,Variant,effect of a mutation on the interaction
1,MSRVPSPPPPAEMSSGPVAESWCYTQIKVVKFSYMWTINNFSFCREEMGEVIKSSTFSSGANDKLKWCLRVNPKGLDEESKDYLSLYLLLVSCPKSEVRAKFKFSILNAKGEETKAMESQRAYRFVQGKDWGVKKFIRRDFLLDEANGLLPDDKLTLFCEVSVVQDSVNISGQNTMNMVKVPECRLADELGGLWENSRFTDCCLCVAGQEFQAHKAILAARSPVFSAMFEHEMEESKKNRVEINDVEPEVFKEMMCFIYTGKAPNLDKMADDLLAAADKYALERLKVMCEDALCSNLSVENAAEILILADLHSADQLKTQAVDFINYHASDVLETSGWKSMVVSHPHLVAEAYRSLASAQCPFLGPPRKRLKQS [F133V],with no effect
